Measurements: the supplement of paper PMC9170038

Test system: MS2 coat protein
Assay: apparent KD of MS2 coat protein; designed switch direction (-1 OFF switch, 1 ON switch): 1; higher = weaker reporter binding
In short: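 Designed RNA switches with common flanks were transcribed on Illumina chips by stalled E. coli RNA polymerase and titrated with SNAP-549-labelled MS2 coat protein, from 0.7 or 1.5 nM doubling to 3 µM, in Tris-HCl pH 7.5 buffer with KCl, MgCl2, BSA, DTT, tRNA and Tween-20. Steps lasted 0.8–1.5 h (lowest) to 10–20 min (highest). Titrations ran without input, with 200 uM small-molecule ligand, or with an oligonucleotide input. Normalised cluster fluorescence was curve-fitted, and apparent KD is the per-design median over clusters.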

[1] = input ligand: microRNA oligo, concentration not stated
[2] = Eterna round: R95, input ligand: FMN 200 uM
[3] = Eterna round: R95, input ligand: microRNA oligo, concentration not stated
[4] = Eterna round: R95, input ligand: none

Sequence	apparent KD of MS2 coat protein (input ligand: FMN 200 uM) [nM]	apparent KD of MS2 coat protein [1] [nM]	apparent KD of MS2 coat protein (input ligand: none) [nM]	apparent KD of MS2 coat protein [2] [nM]	apparent KD of MS2 coat protein [3] [nM]	apparent KD of MS2 coat protein [4] [nM]
GGUGCAAUAAACGCCUACAUGAGGAUCACCCAUGUAUGUAGGCAGGAUAUCGUUUGCAAAGCAAACGAGAAGGGCUAUAGUACC [Mat - Same State NG 3 - JL Mod - D44] (Eterna round: R96, puzzle: Same State NG 3)	56.2	123	161			
GGUGCACGGUGACGUGCACGGUAGUGCGUACAUGAGGAUCACCCAUGUCAUGUAGGAGUUACUUGUUCGUCUUGAAC [SENSOR #2] (puzzle: Sensor for hsa-mir-208a)				28.7	22.8	25.4
GGUGGGUUACUACCAACACAUGAGGAUCACCCAUGUUUUGGGAAGGAUAUGGUACCUAUUUGGUACCAGAAGGUCCCGUUGGUG [salish99_SSNG3_r04_705] (Eterna round: R96, puzzle: Same State NG 3)	28.7	25.8	36			
GGUUUAGUCGAGUGCCAUUCCACUCGAAAACAUGAGGAUCACCCAUGUUUGGGACAAGCUUUGCUCCUCGUCUUUCC [Inertequ] (puzzle: Sensor for hsa-mir-208a)				259	75.8	371
GUAAGUUCGAUGCUCGUCUCUCCGUACAAACAUGAGGAUCACCCAUGUGAUCGGGAAGUAGCCCGAUCAGUAUGGCC [Teonveenes] (puzzle: Sensor for hsa-mir-208a)				34.8	24.3	38.2
GUAAGUUCGAUGCUCGUCUCUCCGUACAAACAUGAGGAUCACCCAUGUGAUCGGGCAGUAGCCCGAUCAGUAUGGCC [Xearlaxe] (puzzle: Sensor for hsa-mir-208a)				44	22.6	47
GUACAGAUUAUAGGAUAUCACGUCGAUUAGACGUGAGAAGGAUAAUCACACAUGAAUAUUAAUACAUGAGGAUCACCCAUGUAC [SSNG1/17-A2] (Eterna round: R96, puzzle: Same State NG 1)	12.9	12.9	17			
GUAGCAUACCGAGGAUAUUCAUAUAAUAAAUAAACAUGAGGAUCACCCAUGUGGCGAAAGCCUUGGGAGAAGGCGGAAUGCUAC [Xeonanis - 20 Mod55] (Eterna round: R96, puzzle: Same State NG 2)	20.7	296	486			
GUAGCAUACCGAGGAUAUUCAUAUUACAUGAGGAUCACCCAUGUUAUAGGUCGAUUACGACCUUGGGAGAAGGCGGAAUGCUAC [Xeonanis - 20 Mod32] (Eterna round: R96, puzzle: Same State NG 2)		23				
GUAGCAUACCGAGGAUAUUCAUUAAACAUGAGGAUCACCCAUGUAAAUUAUAGGCGAAAGCCUUGGGAGAAGGCGGAAUGCUAC [Xeonanis - 20 Mod72] (Eterna round: R96, puzzle: Same State NG 2)	11	11.3	19.1			
GUAGGACAUGAGGAUCACCCAUGUGGGAGGGAACGAGGAUAUGUGAAAGGAUUGAAGAGGACAGAAGGCGUGGAGG [JR_SS1_Sub026] (puzzle: Same State 1)					30.1	
GUAUAACAUGAGGAUCACCCAUGUCAACAAAGUCGAGGAUAUGGGCAGAGAGGAGAAGAACCAGAAGGCGAAUAUG [Mat - Same State 1 - Mod of UCT - D37] (puzzle: Same State 1)				77.8	59.2	122
GUCCGGCUGCCACAGGAUAUACGUGGAUCGACAUGAGGAUCACCCAUGUAUAUCCUAAUAAUUGCGUAGAAGGGUGGUCAGCCGG [Dionbe] (Eterna round: R96, puzzle: Same State 2)		507				
GUCCGGCUGCCACAGGAUAUACGUGGAUCGACAUGAGGAUCACCCAUGUAUAUCCUAAUAAUUGCGUAGAAGGGUGGUCAGCCGG [Dionbe] (puzzle: Same State 2)				78.3	540	1180
GUGCGGCUGCCACAGGAUAUACGUGGAUCGACAUGAGGAUCACCCAUGUAUAUCCUAAUAAUUGCGUAGAAGGGUGGUCAGCCAG [Iserinqu] (puzzle: Same State 2)				90	332	469
GUGCUCAUGUAAGGAUAUGCAGCCGUUUCGGCUGCAGAAGGUACUAUAAUACAUGAGGAUCACCCAUGUCUCUAUAAUUUGGUG [salish99_SSNG1_r04_903] (Eterna round: R96, puzzle: Same State NG 1)		76.5				
GUGCUCGUGUAAGGAUAUGCAGCCGUUUCGGCUGCAGAAGGUACUAUAAUACAUGAGGAUCACCCAUGUCUCUAUAGUUUGGUG [salish99_SSNG1_r04_905] (Eterna round: R96, puzzle: Same State NG 1)		22.3				
GUGGAGGGUUGAGGAUAUUGAAUACAUAUGUUUAACAUGAGGAUCACCCAUGUGGGUUGCGGUAUCGAGAAGGUAAAUUGCUGG [salish99_SSNG2_r04_037] (Eterna round: R96, puzzle: Same State NG 2)		72.1				
